Reference: the supplement of paper PMC6755084

Each sequence was assayed on F1*sub RNA substrate (template-directed ligation) (assay: fraction ligated after 30 min (ligated reads / total reads); higher = more ligase activity; sequences stand for … in GAGACCGCAACTGAAAAGTTGT…AGTTCTGCACGTAGAAGCAAAAGGC). Conditions: 42 °C.
How it was run: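 Oligo-pool templates of ligase ribozyme variants were PCR-amplified, T7-transcribed and gel-purified. Ligated and unligated bands were gel-separated, reverse transcribed with barcoded primers, and MiSeq-sequenced; core bases were filtered at quality ≥20. Fraction ligated per variant was ligated reads over total reads.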

Row | Sequence | fraction ligated
1 | TATCACTTTGTAAGCACTTTGGATGGGTTGA [3d1468] | 0.783
2 | TATCACTTGTCGTAAGACCTTTGGGGGTTGA [3d2196] | 0.0519
3 | TATCACTTGCTAAGACACTTTGGATGGGTTG [3d1612] | 0.8
4 | ACACTTGTCGTAAGACACTTTGGATGGTTGA [3d43] | 0.662
5 | TATCCTTGTCGTAAGACACTTTGGTGGTTGA [3d1111] | 0.0166
6 | TATCACTTGTCGTAGACATTTGGATGGGTTA [3d2033] | 0.799
7 | TATCACGTCGTAAGACACTTTGATGGGTTGA [3d1305] | 0.777
8 | TATCACTTTCGTAAGACACTTGGATGGTTGA [3d1565] | 0.134
9 | TACACTTTCGTAAGAACTTTGGATGGGTTGA [3d591] | 0.0829
10 | TATCCTTTCGAAGACACTTTGGATGGGTTGA [3d970] | 0.8
11 | TATCACTTGTCGTAGACACTTTGATGGGTTA [3d2046] | 0.156
12 | TATCATTTCTAAGACACTTTGGATGGGTTGA [3d1141] | 0.786
13 | TATCACTTGTCGTAAGACACTTTGGAGGTTGA [2d293] | 0.0113
14 | TATCACTGTCGTAAGACACTTTGGTGGTTGA [3d1454] | 0.0276
15 | TATCACTTGTCGTAGACACTTTGGATGGGTTA [2d232] | 0.825
16 | TATCACTTTCTAAGACACTTTGATGGGTTGA [3d1487] | 0.77
17 | TATCACTGTCGTAAGCACTTTGGATGGGTTG [3d1417] | 0.816
18 | TATATTTCGTAAGACACTTTGGATGGGTTGA [3d759] | 0.245
19 | TATCACTTGTCGAAGACACTTTGGAGGGTTG [3d1976] | 0.08
20 | TATCACTTGTCGTGACACTTGGATGGGTTGA [3d1986] | 0.779
21 | TATCACTTTCGTAAGACATTTGGAGGGTTGA [3d1557] | 0.0972
22 | TATCATTGTCAAGACACTTTGGATGGGTTGA [3d1187] | 0.783
23 | TATCCTTGTGTAAGAACTTTGGATGGGTTGA [3d1005] | 0.818

Row | Sequence | fraction ligated
24 | TATCCTTGTCTAAGAACTTTGGATGGGTTGA [3d1019] | 0.764
25 | TATCACTTGCTAAGACACTTTGGATGGGTTA [3d1611] | 0.773
26 | TATCTTGTCGTAAGACCTTTGGATGGGTTGA [3d749] | 0.757
27 | TTCACTTGTCGTAAACCTTTGGATGGGTTGA [3d443] | 0.514
28 | TATCATTGTCGTAAGACACTTTGGATGGTTG [3d1290] | 0.299
29 | TATCCTTCGTAAGACACTTTGGATGGGTTGA [3d950] | 0.798
30 | ACACTTGTCTAAGACACTTTGGATGGGTTGA [3d31] | 0.441
31 | TATCACTTGTGTAAGACACTTTGGATGGGTT [3d1808] | 0.615
32 | TATACTTGTCGTAAGCACTTTGATGGGTTGA [3d897] | 0.703
33 | TATCACTTGCGAAGACACTTTGGTGGGTTGA [3d1621] | 0.0968
34 | TATCACTTGTCGTAAAACTTTGGATGGGTTG [3d2066] | 0.791
35 | TTCACTTGTCTAAACACTTTGGATGGGTTGA [3d404] | 0.719
36 | TATCACTGTCGTAAGACACTTTGGATGGGTTA [2d145] | 0.773
37 | TATCCTTGTCTAAGACCTTTGGATGGGTTGA [3d1020] | 0.786
38 | TATCACTTGTCGTAGACATTTGGATGGTTGA [3d2032] | 0.147
39 | TTCCTTGTCGTAAACACTTTGGATGGGTTGA [3d305] | 0.786
40 | ATCACTTGTCGTAAGACACTTTGGATGGGTTGA [1d1] | 0.781
41 | TATCATTGTGTAAGACATTTGGATGGGTTGA [3d1179] | 0.839
42 | TATCACTTGTCGTAAACATTTGGATGGGTTA [3d2079] | 0.822
43 | TATCACTTGTCGTAAACACTTTGGATGGTTA [3d2101] | 0.169
44 | ATCATTGTCGTAAGACACTTTGATGGGTTGA [3d99] | 0.664
45 | TATCCTTGTCGTAAGACACTTGATGGGTTGA [3d1098] | 0.745
46 | TATACTTGTCGTAAGACACTTTGGATGGTTGA [2d87] | 0.127

Row | Sequence | fraction ligated
47 | TATCACTTTGTAAGACACTTTGGAGGGTTGA [3d1475] | 0.0352
48 | ATCACTTGTGTAAGACACTTTGGATGGTTGA [3d168] | 0.45
49 | TACACTTGCGAAGACACTTTGGATGGGTTGA [3d603] | 0.157
50 | TATACTGTCGTAAGACACTTTGGATGGTTGA [3d793] | 0.132
51 | TATCACTTGTCGTAACACTTTGATGGGTTGA [3d1997] | 0.464
52 | TATCCTTGTCGTAAGACACTGGATGGGTTGA [3d1097] | 0.756
53 | TATCCTTGTCGTAAGACACTTTGGATGGGTTA [2d107] | 0.401
54 | TATATTGTCGTAAGACACTTTGGATGGGTTGA [2d70] | 0.61
55 | TATACTTGTCGTAAGAACTTTGGATGGGTTA [3d909] | 0.0459
56 | TATCACTTGCTAAGACACTTTGGTGGGTTGA [3d1608] | 0.11
57 | TATCACTTGCGTAAGACACTTTGGTGGGTTA [3d1696] | 0.0753
58 | TTCATTGTCGTAAGACACTTTGGATGGTTGA [3d333] | 0.421
59 | TATCACTGTCGTAGACACTTTGGATGGGTTA [3d1396] | 0.791
60 | TTCATTGTCGTAAGAACTTTGGATGGGTTGA [3d326] | 0.149
61 | ATCCTTGTGTAAGACACTTTGGATGGGTTGA [3d70] | 0.734
62 | TATCATTGTCGTAAGACACTTTGGTGGGTTG [3d1285] | 0.247
63 | TATCACTTGTCGTAAGACATTTGATGGGTTGA [2d270] | 0.291
64 | TACACTTTCGTAAGACACTTTGGATGGGTTG [3d600] | 0.0259
65 | ATCACTTGTCGTAAGACCTTGGATGGGTTGA [3d239] | 0.716
66 | TATCATTGTCGTAAGACCTTTGGAGGGTTGA [3d1258] | 0.104
67 | TATCACTTGTCGTAAGAACTTGATGGGTTGA [3d2160] | 0.788
68 | TATCCTTTCGTAAGCACTTTGGATGGGTTGA [3d973] | 0.77
69 | TATCATTGTCGTAAGACCTTTGGATGGGTTA [3d1260] | 0.697

Row | Sequence | fraction ligated
70 | TATCACTTGTCGTAACACTTTGGTGGGTTGA [3d1998] | 0.0145
71 | TAACTTGTCGTAAACACTTTGGATGGGTTGA [3d516] | 0.0735
72 | TATCCTTGTCGTAAGACACTTTGGAGGGTTA [3d1115] | 0.00568
73 | TATCCTTGTCGTAGCACTTTGGATGGGTTGA [3d1044] | 0.774
74 | TTCACTTGTCGTAAGCACTTTGGATGGGTTA [3d460] | 0.0582
75 | TATCACTTGTCGTAAACCTTTGGATGGTTGA [3d2071] | 0.256
76 | TATCACTTGTCGTAAGACACTTGGAGGGTTG [3d2250] | 0.00522
77 | ATCACTGTCGTAAACACTTTGGATGGGTTGA [3d112] | 0.747
78 | TATCATTGCGTAAGACATTTGGATGGGTTGA [3d1164] | 0.802
79 | TATACTTGTCTAAGACACTTTGGAGGGTTGA [3d853] | 0.0271
80 | TTCACTTGTCGTAAGACATTTGGATGGGTTGA [2d39] | 0.776
81 | ATCACTTGTGTAAGACATTTGGATGGGTTGA [3d163] | 0.798
82 | TACACTTGTTAAGACACTTTGGATGGGTTGA [3d617] | 0.244
83 | TTCCTTGTCGTAAGACACTTTGGAGGGTTGA [3d313] | 0.186
84 | TAACTTGTGTAAGACACTTTGGATGGGTTGA [3d512] | 0.547
85 | TATCACTGTGTAAGACACTTTGGTGGGTTGA [3d1353] | 0.0456
86 | TATCACTGTGTAAGACACTTTGGATGGGTTG [3d1357] | 0.843
87 | TATCCTTGTCGTAAGAACTTTGGAGGGTTGA [3d1079] | 0.00912
88 | TATACTTGTCTAAGACCTTTGGATGGGTTGA [3d848] | 0.481
89 | ATCACTTGTGTAAGACACTTTGGTGGGTTGA [3d166] | 0.0152
90 | TATCACTTTCTAAACACTTTGGATGGGTTGA [3d1481] | 0.79
91 | TATCACTTGTTAAGACACTTTGGATGGGTTA [3d1716] | 0.778
92 | TATCACTTTGTAAGACCTTTGGATGGGTTGA [3d1470] | 0.769

Row | Sequence | fraction ligated
93 | TCACTGTCGTAAGACACTTTGGATGGGTTGA [3d5] | 0.621
94 | TACACTTGTCGTAGACACTTGGATGGGTTGA [3d665] | 0.101
95 | ATCACTTGTCGTAAACACTTTGGTGGGTTGA [3d216] | 0.0249
96 | ATACTTGTGTAAGACACTTTGGATGGGTTGA [3d51] | 0.734
97 | TATCACTTGGTAAGACACTTTGGATGGTTGA [3d1596] | 0.134
98 | TATCACTTGCGTAAGACATTTGGTGGGTTGA [3d1676] | 0.0926
99 | TATCACTTGTCGTAAGATTTGGATGGGTTGA [3d2106] | 0.815
100 | TATCACTTGTCGTAAGACACTTTGTGGGTTGA [2d284] | 0.0141
101 | TATCACTGTGTAAGACACTTTGGATGGGTTA [3d1356] | 0.823
102 | TACACTTGTCGTAAGACACTTGGATGGTTGA [3d718] | 0.0649
103 | ATCCTTGTCGTAAGACCTTTGGATGGGTTGA [3d77] | 0.703
104 | TATCCTTGTCTAAGACACTTTGGATGGGTTA [3d1027] | 0.394
105 | TACTTGTCGTAAGACACTTTGGATGGGTTGA [3d2] | 0.486
106 | TTCACTTGTCGTAAGACACTTTGGTGGGTTA [3d499] | 0.00711
107 | TATCACTTGTCGAAACACTTTGGATGGTTGA [3d1922] | 0.0984
108 | TATATTGTCGTAAGACACTTGGATGGGTTGA [3d770] | 0.641
109 | TATCACTTGTCTAGACACTTTGGATGGGTTG [3d1835] | 0.76
110 | TACACTTGTCTAAGACCTTTGGATGGGTTGA [3d637] | 0.0809
111 | TATCACTTGCGTAAACACTTTGGATGGTTGA [3d1646] | 0.149
112 | TATCACTGTCGTAAACACTTTGGATGGTTGA [3d1405] | 0.166
